Data: patent US20220153873A1 (ICAHN SCHOOL OF MEDICINE AT MOUNT SINAI, published 2022)
Like-named read-outs stand apart in the source and are kept apart here.

B1: 3G1 antibody (murine IgG2a, hybridoma-produced) (antibody, V domains shown)
VH: QVQLQQSGAELMKPGASVKISCKATGYKFTSYWIGWVKQRPGHGLEWCGEIFPGSGSINYNEKFKGKATFTADTSSNTAYLQLTSLTSEDSAVYYCARGEDYYGSSYGAMDYWGQGTSLTVSS
VL: DVQITQSPSYLAASPGETITINCRASKSISKYVAWYQEKPGRTNKVLIYSGSILSFGNPSRFSGSGSGTDFTLTISSLEPEDFAMYYCQQHNEYPWTFGGGTKLEIK
notes: also called mAb 3G1
B2: recombinant 1F2 IgG2a (antibody, V domains shown)
VH: QVHLQQSGPEVARPGASVKLSCKASGYTFTDYYLNWVKQRPRQGLEWIGQIHPGSTNTYYNEKFKGKATLTADKSSSTAYMQLSSLTSEDSAVYFCARSLGDGYYVYAMDYWGQGTAVTVSS
VL: DIVMTQSQKFMSTSVGDRVSVTCKASQNVVTNVVWYQQKPGQSPKPLIYSASYRYSGVPDRFTGSGSGTDFTLTISNVQSEDLAEYCCQQYHSYPFTFGSGTKLEVK
B3: recombinant 1F2 IgG2b (antibody, V domains shown)
VH: QVHLQQSGPEVARPGASVKLSCKASGYTFTDYYLNWVKQRPRQGLEWIGQIHPGSTNTYYNEKFKGKATLTADKSSSTAYMQLSSLTSEDSAVYFCARSLGDGYYVYAMDYWGQGTAVTVSS
VL: DIVMTQSQKFMSTSVGDRVSVTCKASQNVVTNVVWYQQKPGQSPKPLIYSASYRYSGVPDRFTGSGSGTDFTLTISNVQSEDLAEYCCQQYHSYPFTFGSGTKLEVK
B4: recombinant 1F2 IgG1 (antibody, V domains shown)
VH: QVHLQQSGPEVARPGASVKLSCKASGYTFTDYYLNWVKQRPRQGLEWIGQIHPGSTNTYYNEKFKGKATLTADKSSSTAYMQLSSLTSEDSAVYFCARSLGDGYYVYAMDYWGQGTAVTVSS
VL: DIVMTQSQKFMSTSVGDRVSVTCKASQNVVTNVVWYQQKPGQSPKPLIYSASYRYSGVPDRFTGSGSGTDFTLTISNVQSEDLAEYCCQQYHSYPFTFGSGTKLEVK
B5: 1F2 antibody (murine IgG2a, hybridoma-produced) (antibody, V domains shown)
VH: QVHLQQSGPEVARPGASVKLSCKASGYTFTDYYLNWVKQRPRQGLEWIGQIHPGSTNTYYNEKFKGKATLTADKSSSTAYMQLSSLTSEDSAVYFCARSLGDGYYVYAMDYWGQGTAVTVSS
VL: DIVMTQSQKFMSTSVGDRVSVTCKASQNVVTNVVWYQQKPGQSPKPLIYSASYRYSGVPDRFTGSGSGTDFTLTISNVQSEDLAEYCCQQYHSYPFTFGSGTKLEVK
notes: also called mAb 1F2; IF2
B6: recombinant 4F11 IgG2b (antibody, V domains shown)
VH: DVKLVESGGDLVKPGGSLKLSCAASGFTFSAYSMSWVRQTPERRLEWVATINTGGSFTYYPDSVKGRFTISRDNAKNTLYLQMSSLKSEDTAMYFCTRVSDYGNSAYFPYWGQGTLVIVSA
VL: QVVLTQSPALISASPGEKVTMTCSASSNVNYMSWYQQRPRSSPKPWIYLTSKLASGVPPRFSGSGSGTSYSLTISSMEAEDVATYYCQQWSSDPQTFGGGTKVEIK
B7: 4F11 antibody (murine IgG2b, hybridoma-produced) (antibody, V domains shown)
VH: DVKLVESGGDLVKPGGSLKLSCAASGFTFSAYSMSWVRQTPERRLEWVATINTGGSFTYYPDSVKGRFTISRDNAKNTLYLQMSSLKSEDTAMYFCTRVSDYGNSAYFPYWGQGTLVIVSA
VL: QVVLTQSPALISASPGEKVTMTCSASSNVNYMSWYQQRPRSSPKPWIYLTSKLASGVPPRFSGSGSGTSYSLTISSMEAEDVATYYCQQWSSDPQTFGGGTKVEIK
notes: also called mAb 4F11; 4F11 Hybridoma
B8: 1F4 antibody (murine IgG2a, hybridoma-produced) (antibody, V domains shown)
VH: QVHLQQSGSELRSPGSSVKLSCKDFDSEVFPIVYMRWIRQKPGHGFEWIGDILPSFGRTIYGEKFEDKATLDADTVSNTAYLELNSLTSEDSAIYYCARGDHGNWLAYWGQGTLVTVSA
VL: DIVMTQSHKFMSTSVGDRVTITCKASQDVSTAVAWYQQKPGQSPKLLIYWASTRHTGVPNRFTGIISGTDYTLTISSVQAEDLALYYCQQHYSAPWTFGGGTKLEIK
notes: also called mAb 1F4; IF4
B9: 4B2 antibody (murine IgG2a, hybridoma-produced) (antibody, V domains shown)
VH: QIQLVQSGPELKKPGETVKISCKASGFTFTDYPMHWVKQAPGKSLKWMGWINTETEEPTYSDDFKGRFALSLETSASTTYLQINNLKNEDTATYFCARSGYYYGSTYAWFGYWGQGTLVTVSA
VL: DVVMTQIPLSLPVSLGDQASISCRSSQSLIHTNGDTFLHWYLQKPGQSPKLLIYKVSNRFSGVPDRFTGGGSGTDFTLKISRVEAEDLGIYFCSQSALFPYTFGGGTNLEIK
notes: also called mAb 4B2
B10: recombinant 4F11 IgG1 (antibody, V domains shown)
VH: DVKLVESGGDLVKPGGSLKLSCAASGFTFSAYSMSWVRQTPERRLEWVATINTGGSFTYYPDSVKGRFTISRDNAKNTLYLQMSSLKSEDTAMYFCTRVSDYGNSAYFPYWGQGTLVIVSA
VL: QVVLTQSPALISASPGEKVTMTCSASSNVNYMSWYQQRPRSSPKPWIYLTSKLASGVPPRFSGSGSGTSYSLTISSMEAEDVATYYCQQWSSDPQTFGGGTKVEIK
B11: recombinant 4F11 IgG2a (antibody, V domains shown)
VH: DVKLVESGGDLVKPGGSLKLSCAASGFTFSAYSMSWVRQTPERRLEWVATINTGGSFTYYPDSVKGRFTISRDNAKNTLYLQMSSLKSEDTAMYFCTRVSDYGNSAYFPYWGQGTLVIVSA
VL: QVVLTQSPALISASPGEKVTMTCSASSNVNYMSWYQQRPRSSPKPWIYLTSKLASGVPPRFSGSGSGTSYSLTISSMEAEDVATYYCQQWSSDPQTFGGGTKVEIK
B12: recombinant 1F2 monomeric IgA (antibody, V domains shown)
VH: QVHLQQSGPEVARPGASVKLSCKASGYTFTDYYLNWVKQRPRQGLEWIGQIHPGSTNTYYNEKFKGKATLTADKSSSTAYMQLSSLTSEDSAVYFCARSLGDGYYVYAMDYWGQGTAVTVSS
VL: DIVMTQSQKFMSTSVGDRVSVTCKASQNVVTNVVWYQQKPGQSPKPLIYSASYRYSGVPDRFTGSGSGTDFTLTISNVQSEDLAEYCCQQYHSYPFTFGSGTKLEVK
B13: recombinant 4F11 monomeric IgA (antibody, V domains shown)
VH: DVKLVESGGDLVKPGGSLKLSCAASGFTFSAYSMSWVRQTPERRLEWVATINTGGSFTYYPDSVKGRFTISRDNAKNTLYLQMSSLKSEDTAMYFCTRVSDYGNSAYFPYWGQGTLVIVSA
VL: QVVLTQSPALISASPGEKVTMTCSASSNVNYMSWYQQRPRSSPKPWIYLTSKLASGVPPRFSGSGSGTSYSLTISSMEAEDVATYYCQQWSSDPQTFGGGTKVEIK

Tests used:
[1] = target: neuraminidase of B/Lee/40 (purified whole virus) (influenza B virus B/Lee/40, UniProt P03474 1-466); assay: ELISA on purified whole virus
[2] = target: recombinant neuraminidase (rNA) of B/Florida/04/06 (influenza B virus B/Florida/04/06); assay: ELISA, biotinylated 3G1 on rNA B/Florida/04/2006, no competitor
[3] = target: neuraminidase of wild type B/Malaysia/2506/04 virus (on virus and on infected MDCK cells) (influenza B virus B/Malaysia/2506/04); assay: cell-based or functional assay
[4] = target: recombinant neuraminidase (rNA) of B/Malaysia/2506/04 (influenza B virus B/Malaysia/2506/04)
[5] = target: recombinant neuraminidase (rNA) of B/Florida/04/06 (influenza B virus B/Florida/04/06); assay: ELISA, rNA B/Florida/4/2006 coated at 2 ug/mL
[6] = target: recombinant neuraminidase (rNA) of B/Florida/04/06 (influenza B virus B/Florida/04/06); assay: ELISA, biotinylated 1F2 on rNA B/Florida/04/2006, no competitor
[7] = target: recombinant neuraminidase (rNA) of B/Florida/04/06 (influenza B virus B/Florida/04/06)
[8] = target: recombinant neuraminidase (rNA) of B/Malaysia/2506/04 (influenza B virus B/Malaysia/2506/04); assay: ELISA, rNA B/Malaysia/2506/04 coated at 2 ug/mL
[9] = target: recombinant neuraminidase (rNA) of B/Florida/04/06 (influenza B virus B/Florida/04/06); remark: listed apart in the source
[10] = target: recombinant neuraminidase (rNA) of B/Florida/04/06 (influenza B virus B/Florida/04/06); assay: ELISA, biotinylated 4B2 on rNA B/Florida/04/2006, no competitor

neuraminidase of B/Lee/40 (purified whole virus), sequence (P03474 whole entry): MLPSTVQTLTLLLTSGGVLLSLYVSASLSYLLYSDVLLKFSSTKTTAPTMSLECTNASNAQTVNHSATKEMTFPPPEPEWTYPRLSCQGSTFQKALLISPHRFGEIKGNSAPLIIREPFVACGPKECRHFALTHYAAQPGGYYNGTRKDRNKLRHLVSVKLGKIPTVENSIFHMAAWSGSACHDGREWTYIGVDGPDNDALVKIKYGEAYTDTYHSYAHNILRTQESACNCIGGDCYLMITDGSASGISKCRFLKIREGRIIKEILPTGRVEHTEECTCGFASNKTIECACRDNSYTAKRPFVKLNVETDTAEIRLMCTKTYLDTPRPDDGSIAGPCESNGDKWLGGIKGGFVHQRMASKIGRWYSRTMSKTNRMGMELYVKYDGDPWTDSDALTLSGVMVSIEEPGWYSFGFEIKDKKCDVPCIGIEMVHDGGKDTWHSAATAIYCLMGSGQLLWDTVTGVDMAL

Binder	binding result [1]	Kd [4] [nM]	EC50 (read off the curve) [5] [µg/mL]	other results
B1	binds	–	–	EC50 (read off the curve) [2]: 0.07 µg/mL; NI activity, NA-Star assay (percent inhibition) [3]: 100%
B2	–	0.68	0.03	–
B3	–	1.16	0.03	–
B4	–	1.05	0.05	–
B5	binds	–	0.03	EC50 (read off the curve) [6]: 0.02 µg/mL; EC50 (read off the curve) [7]: 0.2 µg/mL
B6	–	0.00298	–	EC50 (read off the curve) [8]: 0.07 µg/mL
B7	binds	–	–	EC50 (read off the curve) [8]: 0.06 µg/mL
B8	binds	–	–	EC50 (read off the curve) [9]: 0.04 µg/mL
B9	binds	–	–	EC50 (read off the curve) [10]: 0.1 µg/mL
B10	–	0.00891	–	–
B11	–	0.00336	–	–
B12	–	0.958	–	–
B13	–	0.00472	–	–
